The values that follow come from the supplement of paper PMC5998384.

Data set [1] relates to HeLa Kyoto. The data set can be described thus: solubility change mitosis vs G1/S (difference of NP-40 vs SDS log2 ratios) (log2 ratio difference); higher = more soluble in mitosis.
The subject of data set [2] is HeLa Kyoto. The experiment in a line: solubility in G1/S (NP-40 vs SDS abundance) (log2 ratio); higher = more soluble. Conditions: cell cycle stage: G1/S.
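Wherever solubility change mitosis vs G1/S (difference of NP-40 vs SDS log2 ratios) is given: synchronized HeLa Kyoto cells (double thymidine block for G1/S, nocodazole release for mitosis), protein amounts in NP-40 versus SDS lysates quantified by mass spectrometry, three biological replicates.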
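Wherever solubility in G1/S (NP-40 vs SDS abundance) is given: HeLa Kyoto cells arrested at G1/S by double thymidine block, proteins quantified by TMT10plex mass spectrometry in mild NP-40 versus SDS extracts, three biological replicates.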

Consider “MSELKDCPLQFHDFKSVDHLKVCPRYTAVLARSEDDGIGIEELDTLQLELETLLSSASRRLRVLEAETQILTDWQDKKGDRRFLKLGRDHELGAPPKHGKPKKQKLEGKAGHGPGPGPGRPKSKNLQPKIQEYEFTDDPIDVPRIPKNDAPNRFWASVEPYCADITSEEVRTLEELLKPPEDEAEHYKIPPLGKHYSQRWAQEDLLEEQKDGARAAAVADKKKGLMGPLTELDTKDVDALLKKSEAQHEQPEDGCPFGALTQRLLQALVEENIISPMEDSPIPDMSGKESGADGASTSPRNQNKPFSVPHTKSLESRIKEELIAQGLLESEDRPAEDSEDEVLAELRKRQAELKALSAHNRTKKHDLLRLAKEEVSRQELRQRVRMADNEVMDAFRKIMAARQKKRTPTKKEKDQAWKTLKERESILKLLDG [TADA3]”, for which the “solubility change mitosis (log2)” value in the data set with HeLa Kyoto [1] amounted to 0.286. Further, in the data set on HeLa Kyoto [2], the “solubility in G1/S (log2)” value turned out to be 0.646.
On the same counts, the results for “MSFKREGDDWSQLNVLKKRRVGDLLASYIPEDEALMLRDGRFACAICPHRPVLDTLAMLTAHRAGKKHLSSLQLFYGKKQPGKERKQNPKHQNELRREETKAEAPLLTQTRLITQSALHRAPHYNSCCRRKYRPEAPGPSVSLSPMPPSEVKLQSGKISREPEPAAGPQAEESATVSAPAPMSPTRRRALDHYLTLRSSGWIPDGRGRWVKDENVEFDSDEEEPPDLPLD [SCNM1]” are 0.462 and 0.0519.
Take “MSFRGGGRGGFNRGGGGGGFNRGGSSNHFRGGGGGGGGGNFRGGGRGGFGRGGGRGGFNKGQDQGPPERVVLLGEFLHPCEDDIVCKCTTDENKVPYFNAPVYLENKEQIGKVDEIFGQLRDFYFSVKLSENMKASSFKKLQKFYIDPYKLLPLQRFLPRPPGEKGPPRGGGRGGRGGGRGGGGRGGGRGGGFRGGRGGGGGGFRGGRGGGFRGRGH [GAR1]”: the “solubility change mitosis (log2)” value with HeLa Kyoto [1] amounted to 1.41. The “solubility in G1/S (log2)” value in the data set on HeLa Kyoto [2] was -1.36.
In the same order, the values of “MSGPCGEKPVLEASPTMSLWEFEDSHSRQGTPRPGQELAAEEASALELQMKVDFFRKLGYSSTEIHSVLQKLGVQADTNTVLGELVKHGTATERERQTSPDPCPQLPLVPRGGGTPKAPNLEPPLPEEEKEGSDLRPVVIDGSNVAMSHGNKEVFSCRGILLAVNWFLERGHTDITVFVPSWRKEQPRPDVPITDQHILRELEKKKILVFTPSRRVGGKRVVCYDDRFIVKLAYESDGIVVSNDTYRDLQGERQEWKRFIEERLLMYSFVNDKFMPPDDPLGRHGPSLDNFLRKKPLTLEHRKQPCPYGRKCTYGIKCRFFHPERPSCPQRSVADELRANALLSPPRAPSKDKNGRRPSPSSQSSSLLTESEQCSLDGKKLGAQASPGSRQEGLTQTYAPSGRSLAPSGGSGSSFGPTDWLPQTLDSLPYVSQDCLDSGIGSLESQMSELWGVRGGGPGEPGPPRAPYTGYSPYGSELPATAAFSAFGRAMGAGHFSVPADYPPAPPAFPPREYWSEPYPLPPPTSVLQEPPVQSPGAGRSPWGRAGSLAKEQASVYTKLCGVFPPHLVEAVMGRFPQLLDPQQLAAEILSYKSQHPSE [ZC3H12A]” are -0.0716 and 0.15.
In the same order, the values of “MSGSDGGLEEEPELSITLTLRMLMHGKEVGSIIGKKGETVKRIREQSSARITISEGSCPERITTITGSTAAVFHAVSMIAFKLDEDLCAAPANGGNVSRPPVTLRLVIPASQCGSLIGKAGTKIKEIRETTGAQVQVAGDLLPNSTERAVTVSGVPDAIILCVRQICAVILESPPKGATIPYHPSLSLGTVLLSANQGFSVQGQYGAVTPAEVTKLQQLSSHAVPFATPSVVPGLDPGTQTSSQEFLVPNDLIGCVIGRQGSKISEIRQMSGAHIKIGNQAEGAGERHVTITGSPVSIALAQYLITACLETAKSTSGGTPSSAPADLPAPFSPPLTALPTAPPGLLGTPYAISLSNFIGLKPMPFLALPPASPGPPPGLAAYTAKMAAANGSKKAERQKFSPY [PCBP4]” are 0.0329 and 0.0231.
Take “MSISLSSLILLPIWINMAQIQQGGPDEKEKTTALKDLLSRIDLDELMKKDEPPLDFPDTLEGFEYAFNEKGQLRHIKTGEPFVFNYREDLHRWNQKRYEALGEIITKYVYELLEKDCNLKKVSIPVDATESEPKSFIFMSEDALTNPQKLMVLIHGSGVVRAGQWARRLIINEDLDSGTQIPFIKRAVAEGYGVIVLNPNENYIEVEKPKIHVQSSSDSSDEPAEKRERKDKVSKETKKRRDFYEKYRNPQREKEMMQLYIRENGSPEEHAIYVWDHFIAQAAAENVFFVAHSYGGLAFVELMIQREADVKNKVTAVALTDSVHNVWHQEAGKTIREWMRENCCNWVSSSEPLDTSVESMLPDCPRVSAGTDRHELTSWKSFPSIFKFFTEASEAKTSSLKPAVTRRSHRIKHEEL [FAM172A]”: the “solubility change mitosis (log2)” value with HeLa Kyoto [1] is -0.00146. The “solubility in G1/S (log2)” value in the data set on HeLa Kyoto [2] amounted to 0.202.
In the same order, the values of “MSKRLSPQLQHNITEDAYCETHLEPTRLFCDVDQITLCSKCFQSQEHKHHMVCGIQEAAENYRKLFQEILNTSREKLEAAKSILTDEQERMAMIQEEEQNFKKMIESEYSMRLRLLNEECEQNLQRQQECISDLNLRETLLNQAIKLATELEEMFQEMLQRLGRVGRENMEKLKESEARASEQVRSLLKLIVELEKKCGEGTLALLKNAKYSLERSKSLLLEHLEPAHITDLSLCHIRGLSSMFRVLQRHLTLDPETAHPCLALSEDLRTMRLRHGQQDGAGNPERLDFSAMVLAAESFTSGRHYWEVDVEKATRWQVGIYHGSADAKGSTARASGEKVLLTGSVMGTEWTLWVFPPLKRLFLEKKLDTVGVFLDCEHGQISFYNVTEMSLIYNFSHCAFQGALRPVFSLCIPNGDTSPDSLTILQHGPSCDATVSP [TRIML2]” are -0.17 and 0.0183.
On the same counts, the results for “MSMILSASVIRVRDGLPLSASTDYEQSTGMQECRKYFKMLSRKLAQLPDRCTLKTGHYNINFISSLGVSYMMLCTENYPNVLAFSFLDELQKEFITTYNMMKTNTAVRPYCFIEFDNFIQRTKQRYNNPRSLSTKINLSDMQTEIKLRPPYQISMCELGSANGVTSAFSVDCKGAGKISSAHQRLEPATLSGIVGFILSLLCGALNLIRGFHAIESLLQSDGDDFNYIIAFFLGTAACLYQCYLLVYYTGWRNVKSFLTFGLICLCNMYLYELRNLWQLFFHVTVGAFVTLQIWLRQAQGKAPDYDV [SEC22A]” are -0.0544 and -0.17.
In the same order, the values of “MSRQTATALPTGTSKCPPSQRVPALTGTTASNNDLASLFECPVCFDYVLPPILQCQSGHLVCSNCRPKLTCCPTCRGPLGSIRNLAMEKVANSVLFPCKYASSGCEITLPHTEKADHEELCEFRPYSCPCPGASCKWQGSLDAVMPHLMHQHKSITTLQGEDIVFLATDINLPGAVDWVMMQSCFGFHFMLVLEKQEKYDGHQQFFAIVQLIGTRKQAENFAYRLELNGHRRRLTWEATPRSIHEGIATAIMNSDCLVFDTSIAQLFAENGNLGINVTISMC [SIAH1]” are -0.11 and 0.247.
“MSSESKEQHNVSPRDSAEGNDSYPSGIHLELQRESSTDFKQFETNDQCRPYHRILIERQEKSDTNFKEFVIKKLQKNCQCSPAKAKNMILGFLPVLQWLPKYDLKKNILGDVMSGLIVGILLVPQSIAYSLLAGQEPVYGLYTSFFASIIYFLLGTSRHISVGIFGVLCLMIGETVDRELQKAGYDNAHSAPSLGMVSNGSTLLNHTSDRICDKSCYAIMVGSTVTFIAGVYQVAMGFFQVGFVSVYLSDALLSGFVTGASFTILTSQAKYLLGLNLPRTNGVGSLITTWIHVFRNIHKTNLCDLITSLLCLLVLLPTKELNEHFKSKLKAPIPIELVVVVAATLASHFGKLHENYNSSIAGHIPTGFMPPKVPEWNLIPSVAVDAIAISIIGFAITVSLSEMFAKKHGYTVKANQEMYAIGFCNIIPSFFHCFTTSAALAKTLVKESTGCHTQLSGVVTALVLLLVLLVIAPLFYSLQKSVLGVITIVNLRGALRKFRDLPKMWSISRMDTVIWFVTMLSSALLSTEIGLLVGVCFSIFCVILRTQKPKSSLLGLVEESEVFESVSAYKNLQIKPGIKIFRFVAPLYYINKECFKSALYKQTVNPILIKVAWKKAAKRKIKEKVVTLGGIQDEMSVQLSHDPLELHTIVIDCSAIQFLDTAGIHTLKEVRRDYEAIGIQVLLAQCNPTVRDSLTNGEYCKKEEENLLFYSVYEAMAFAEVSKNQKGVCVPNGLSLSSD [SLC26A2]”: in the data set with HeLa Kyoto [1], the “solubility change mitosis (log2)” value is -0.0606. Also, the “solubility in G1/S (log2)” value in the data set on HeLa Kyoto [2] is -0.0844.
On to “MSSPGIDGDPKPPCLPRNGLVKLPGQPNGLGAASITKGTPATKNRPCQPPPPPTLPPPSLAAPLSRAALAGGPCTPAGGPASALAPGHPAERPPLATDEKILNGLFWYFSACEKCVLAQVCKAWRRVLYQPKFWAGLTPVLHAKELYNVLPGGEKEFVNLQGFAARGFEGFCLVGVSDLDICEFIDNYALSKKGVKAMSLKRSTITDAGLEVMLEQMQGVVRLELSGCNDFTEAGLWSSLSARITSLSVSDCINVADDAIAAISQLLPNLAELSLQAYHVTDTALAYFTARQGHSTHTLRLLSCWEITNHGVVNVVHSLPNLTALSLSGCSKVTDDGVELVAENLRKLRSLDLSWCPRITDMALEYVACDLHRLEELVLDRCVRITDTGLSYLSTMSSLRSLYLRWCCQVQDFGLKHLLALGSLRLLSLAGCPLLTTTGLSGLVQLQELEELELTNCPGATPELFKYFSQHLPRCLVIE [FBXL16]”, for which, in the data set with HeLa Kyoto [1], the “solubility change mitosis (log2)” value is 0.212. The “solubility in G1/S (log2)” value with HeLa Kyoto [2] was determined as 0.0543.
In the same order, the values of “MSSPPEGKLETKAGHPPAVKAGGMRIVQKHPHTGDTKEEKDKDDQEWESPSPPKPTVFISGVIARGDKDFPPAAAQVAHQKPHASMDKHPSPRTQHIQQPRK [DAP]” are 0.309 and -0.1.
With “MSTAMNFGTKSFQPRPPDKGSFPLDHLGECKSFKEKFMKCLHNNNFENALCRKESKEYLECRMERKLMLQEPLEKLGFGDLTSGKSEAKK [COX19]”, the “solubility change mitosis (log2)” value in the data set on HeLa Kyoto [1] was 0.143. Besides, the “solubility in G1/S (log2)” value in the data set on HeLa Kyoto [2] was found to be 0.00408.
As for “MSTQDERQINTEYAVSLLEQLKLFYEQQLFTDIVLIVEGTEFPCHKMVLATCSSYFRAMFMSGLSESKQTHVHLRNVDAATLQIIITYAYTGNLAMNDSTVEQLYETACFLQVEDVLQRCREYLIKKINAENCVRLLSFADLFSCEELKQSAKRMVEHKFTAVYHQDAFMQLSHDLLIDILSSDNLNVEKEETVREAAMLWLEYNTESRSQYLSSVLSQIRIDALSEVTQRAWFQGLPPNDKSVVVQGLYKSMPKFFKPRLGMTKEEMMIFIEASSENPCSLYSSVCYSPQAEKVYKLCSPPADLHKVGTVVTPDNDIYIAGGQVPLKNTKTNHSKTSKLQTAFRTVNCFYWFDAQQNTWFPKTPMLFVRIKPSLVCCEGYIYAIGGDSVGGELNRRTVERYDTEKDEWTMVSPLPCAWQWSAAVVVHDCIYVMTLNLMYCYFPRSDSWVEMAMRQTSRSFASAAAFGDKIFYIGGLHIATNSGIRLPSGTVDGSSVTVEIYDVNKNEWKMAANIPAKRYSDPCVRAVVISNSLCVFMRETHLNERAKYVTYQYDLELDRWSLRQHISERVLWDLGRDFRCTVGKLYPSCLEESPWKPPTYLFSTDGTEEFELDGEMVALPPV [KBTBD2]”, the “solubility change mitosis (log2)” value in the data set on HeLa Kyoto [1] was -0.00685. The “solubility in G1/S (log2)” value with HeLa Kyoto [2] is -0.319.
